# Paper PMC4239318, “Quantitative investigation of the affinity of human respiratory syncytial virus phosphoprotein C-terminus binding to nucleocapsid protein” (Virology Journal, 2014)
# “And” between values parts separate entries of the source, which are not always exact repeats. Identical values can stand only once. Square brackets hold non-standard residues; d marks the D form. Ends that are not written are not given here. Peptide text beside a SMILES is read from it. * marks the point of attachment. BODIPY(FL) = CC1=CC(C)=[N+]2C1=Cc1ccc(CCC(=O)*)n1[B-]2(F)F; pS = N[C@@H](COP(=O)(O)O)C(=O)O
# B1: peptide 1, DSDNDLSLEDF (unphosphorylated P C-terminal peptide) (peptide)
# peptide: DSDNDLSLEDF
# notes: residues 231-241 of RSV phosphoprotein P; N- and C-termini uncapped; source: synthetic peptide (Biopeptide Co.)
# B2: BP5, BODIPY-FL labeled peptide 5 (D(pS)DNDL(pS)LEDF) (peptide)
# peptide: {BODIPY(FL)}-D[pS]DNDL[pS]LEDF
# notes: C-terminal 11 residues (231-241) of RSV phosphoprotein P; C-terminus uncapped; source: synthetic peptide (Biopeptide Co.), labelled with BODIPY FL SSE, purified on Sephadex LH-20
# B3: DSDNDL(pS)LEDF (P C-terminal peptide phosphorylated on the C-terminal serine) (peptide)
# peptide: DSDNDL[pS]LEDF
# notes: as for B1
# B4: peptide 5, D(pS)DNDL(pS)LEDF (doubly phosphorylated P C-terminal peptide) (peptide)
# peptide: D[pS]DNDL[pS]LEDF
# notes: as for B1
# B5: D(pS)DNDLSLEDF (P C-terminal peptide phosphorylated on the N-terminal serine) (peptide)
# peptide: D[pS]DNDLSLEDF
# notes: as for B1
# B6: BP1, BODIPY-FL labeled peptide 1 (DSDNDLSLEDF) (peptide)
# peptide: {BODIPY(FL)}-DSDNDLSLEDF
# notes: as for B2
# B7: DSDNDLSLEDA (unphosphorylated P C-terminal peptide, C-terminal Phe changed to Ala) (peptide)
# peptide: DSDNDLSLEDA
# notes: also called Ala-modified peptide; source: synthetic peptide (Biopeptide Co.)
# B8: D(pS)DNDL(pS)LEDA (doubly phosphorylated P C-terminal peptide, C-terminal Phe changed to Ala) (peptide)
# peptide: D[pS]DNDL[pS]LEDA
# notes: source: synthetic peptide (Biopeptide Co.)
# Columns and labels:
# RSV-N(13-391) [1] = target: T1, RSV-N(13-391) (Human respiratory syncytial virus A, UniProt P03418)
# Protocol: (§1) Samples of 10 μl containing peptides and proteins as indicated were prepared in buffer composed of 10 mM Tris-HCl (pH 7.5) +0.01% Brij-35 detergent (Pierce Surfact-Amps-35, Thermo Fisher Scientific, Rockford, IL) in low-volume 384-well black polystyrene assay plates (Thermo Fisher Scientific, Hudson, NH). After a 5 minute incubation, fluorescence anisotropy was measured with a Pherastar plate reader (BMG Labtech, Cary, NC) equipped with a filter module having a 485 nm excitation filter and 520 nm emission filters with polarizers. The focal height was 10.8 mm. Each measurement used 50 flashes. The parallel and perpendicular detector gains were set to 392 and 366 in order to produce an anisotropy of about 0.03 in the absence of binding.
# The averages of triplicate fluorescence anisotropy measurements made at each RSV-N(13-391) concentration were fit to the equation y=yo+aN/Kd+N where y is the anisotropy, yo is the anisotropy of peptide alone, [N] is the RSV-N(13-391) concentration, and yo + a is the anisotropy of fully bound peptide.
# (§2) All fluorescence anisotropy measurements were performed at ambient temperature, approximately 21°C.
# RSV-N(13-391) [2] = target: T1, RSV-N(13-391); test: biochemical; conditions: from ΔG = RT ln Kd and IC50 = 2 × Kd; 10 mM Tris-HCl pH 7.5 at 21°C; approximate
# Protocol: as §1
# The averages of triplicate anisotropy measurements made at each competitor concentration were used to calculate % inhibition using the equation %inhibition=1001–r–rmin/rmax–rmin where r is the anisotropy at the competitor concentration, rmin is the anisotropy with no RSV-N(13-391), and rmax is the anisotropy with no competititor.
# as §2
# For the BP5 competition assay, the P protein storage buffer was replaced by repeated concentration using centrifugal ultrafiltration with a Millipore Ultrafree 0.5 unit with Biomax-10 membrane (EMD Millipore, Billerica, MA) and dilution with 10 mM Tris-HCl (pH 7.5). The protein concentration was determined by the method of Bradford using bovine serum albumin as the standard. Serial dilutions of P were prepared in 10 mM Tris-HCl (pH 7.5) +0.01% Brij-35.
# 15N-labeled N(31-252) = target: T2, 15N-labeled N(31-252) (Human respiratory syncytial virus A, UniProt P03418); test: 2-D NMR [15N,1H] TROSY titration, chemical shift perturbation; type: binding, human respiratory syncytial virus (strain A2); conditions: 0.15 mM 15N N(31-252); 25 mM HEPES pH 7.5, 100 mM NaCl, 1 mM DTT, 1 mM EDTA; 298 K; global best fit ± standard error of fit; read-out: Kd measured by NMR
# T2 construct: His6 (N); TEV protease cleavage recognition site (N); made in house; host or cells: E. coli BL21(DE3)pLysS, M9 minimal medium with [15N]; NH4Cl
# Protocol: NMR spectra were acquired at 298 K with a 600 MHz NMR instrument (Bruker, Billerica MA) equipped with an AVANCE III console and a triple-resonance cryogenic probe. Samples were at pH 7.5 in a 25 mM HEPES buffer containing 100 mM NaCl, 1 mM dithiothreitol, and 1 mM EDTA. The concentration of ^15N labeled RSV N(31-252) was 0.15 mM. Two-dimensional [^15N, ^1H] transverse relaxation optimized spectroscopy (TROSY) experiments were recorded with increasing ligand concentration. Evolution times were approximately 53 ms in the ^1H dimension and 29 ms in the ^15N dimension. The total acquisition time was 28 min per experiment.
# To estimate the dissociation constant (Kd) from NMR experiments, ^15N-RSV N(31-252) was titrated with a range of ligand concentrations. The weighted average of chemical shift changes (Δδ(N, H)obs) is calculated using the following equation: ΔδN,Hobs=ΔδHN^2+ΔδΝ/5^2 where ΔδHN and ΔδN are the chemical shift changes of amide protons and nitrogens, respectively. Then Δδ(N, H)obs data were fitted by non-linear regression globally against the total concentration of the subtrate (LT) with the equation: ΔδN,Hobs=ΔδN,HmaxKd+LT+ET‐Kd+LT+ET^2−4LTET/2ET where Δδ(N, H)max is the maximum chemical shift difference, ET is the total concentration of N(31-352) in the solution, and LT is the total concentration of ligand.
# [3] = target: T3, RSV N(13-391), N-terminally truncated nucleocapsid protein (human respiratory syncytial virus, …, UniProt P03418 13-391); test: fluorescence polarisation; fluorescence anisotropy, competition with 25 nM BP5 and 75 nM N(13-391), competitor varied; 10 mM Tris-HCl pH 7.5, 0.01% Brij-35; about 21 °C; conditions: both partners purified
# T3 construct: source: E. coli BL21(DE3)pLysS, purified (Ni2+ chelating, Q-Sepharose, Superdex 200)
# T3 sequence: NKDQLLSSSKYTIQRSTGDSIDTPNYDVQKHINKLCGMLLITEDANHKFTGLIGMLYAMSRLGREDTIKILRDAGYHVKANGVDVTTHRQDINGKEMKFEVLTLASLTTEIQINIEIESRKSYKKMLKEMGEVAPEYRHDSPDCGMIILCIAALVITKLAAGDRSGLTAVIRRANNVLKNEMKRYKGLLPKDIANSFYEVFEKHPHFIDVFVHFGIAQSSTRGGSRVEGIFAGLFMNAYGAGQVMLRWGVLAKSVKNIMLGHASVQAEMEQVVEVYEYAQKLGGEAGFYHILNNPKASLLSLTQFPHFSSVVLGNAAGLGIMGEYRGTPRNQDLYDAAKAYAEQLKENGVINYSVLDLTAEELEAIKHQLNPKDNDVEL
# [4] = target: T3, RSV N(13-391), N-terminally truncated …; test: as above; conditions: both partners purified; remark: listed apart in the source
# [5] = target: T3, RSV N(13-391), N-terminally truncated …; test: SPR; Biacore T200; His10-P immobilised on NTA chip (nickel capture, amine coupling); 100 nM N(13-391) mixed with peptide series; 20 mM HEPES-NaOH pH 7.5, 100 mM NaCl, 1 mM EDTA, 1 mM TCEP, 0.005% Tween 20, 1% DMSO; conditions: both partners purified
# [6] = target: T3, RSV N(13-391), N-terminally truncated …; test: fluorescence polarisation; fluorescence anisotropy, direct binding; 100 nM BP1 or 25 nM BP5, N(13-391) varied; 10 mM Tris-HCl pH 7.5, 0.01% Brij-35; about 21 °C; conditions: both partners purified
# [7] = target: T4, RSV N(31-252), nucleocapsid construct consisting of residues 31-252 (human respiratory syncytial virus, …, UniProt P03418 31-252); test: NMR titration; 2-D [15N,1H] TROSY of 0.15 mM 15N-labeled N(31-252) with increasing ligand; 25 mM HEPES pH 7.5, 100 mM NaCl, 1 mM DTT, 1 mM EDTA; 298 K; conditions: both partners purified
# T4 construct: source: E. coli BL21(DE3)pLysS, purified (Ni2+ chelating, Superdex 200)
# T4 sequence: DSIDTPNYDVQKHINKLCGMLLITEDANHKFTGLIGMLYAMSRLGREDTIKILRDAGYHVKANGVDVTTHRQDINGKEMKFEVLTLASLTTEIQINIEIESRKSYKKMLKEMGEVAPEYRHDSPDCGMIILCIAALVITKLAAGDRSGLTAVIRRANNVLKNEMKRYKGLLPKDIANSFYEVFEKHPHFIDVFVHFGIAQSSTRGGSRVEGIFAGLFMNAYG
# [8] = target: T3, RSV N(13-391), N-terminally truncated …; test: fluorescence polarisation; conditions: both partners purified
molecule,measurement,setting,value
Cc1cc(C)n2c1C=C1C=CC(CCC(=O)N[C@@H](CC(=O)O)C(=O)N[C@@H](COP(=O)(O)O)C(=O)N[C@@H](CC(=O)O)C(=O)N[C@@H](CC(N)=O)C(=O)N[C@@H](CC(=O)O)C(=O)N[C@@H](CC(C)C)C(=O)N[C@@H](COP(=O)(O)O)C(=O)N[C@@H](CC(C)C)C(=O)N[C@@H](CCC(=O)O)C(=O)N[C@@H](CC(=O)O)C(=O)N[C@@H](Cc3ccccc3)C(=O)O)=[N+]1[B-]2(F)F [BP5] ({BODIPY(FL)}-D[pS]DNDL[pS]LEDF-OH),Effect of KCl concentration (ionic strength) on affinity for N(13-391),"RSV-N(13-391) [1]; Kds measured with N(13-391) 1.95 to 2000 nM in triplicate, Figure 1B",diminished as the ionic strength increased
same,affinity relative to unphosphorylated peptide BP1,RSV-N(13-391) [1]; ratio of Kds for N(13-391),about 10 times
CC(C)C[C@H](NC(=O)[C@H](COP(=O)(O)O)NC(=O)[C@H](CC(C)C)NC(=O)[C@H](CC(=O)O)NC(=O)[C@H](CC(N)=O)NC(=O)[C@H](CC(=O)O)NC(=O)[C@H](COP(=O)(O)O)NC(=O)[C@@H](N)CC(=O)O)C(=O)N[C@@H](CCC(=O)O)C(=O)N[C@@H](CC(=O)O)C(=O)N[C@@H](C)C(=O)O [D(pS)DNDL(pS)LEDA],ΔG of binding to RNA-free N(13-391),RSV-N(13-391) [2],-6.0 kcal/mol
CC(C)C[C@H](NC(=O)[C@H](COP(=O)(O)O)NC(=O)[C@H](CC(C)C)NC(=O)[C@H](CC(=O)O)NC(=O)[C@H](CC(N)=O)NC(=O)[C@H](CC(=O)O)NC(=O)[C@H](COP(=O)(O)O)NC(=O)[C@@H](N)CC(=O)O)C(=O)N[C@@H](CCC(=O)O)C(=O)N[C@@H](CC(=O)O)C(=O)N[C@@H](Cc1ccccc1)C(=O)O [D(pS)DNDL(pS)LEDF] (H-D[pS]DNDL[pS]LEDF-OH),ΔG of binding to RNA-free N(13-391),RSV-N(13-391) [2],-8.7 kcal/mol
"N[C@@H](CC(=O)O)C(=O)N[C@@H](Cc1ccccc1)C(=O)O [DF, Asp-Phe, reference compound] (H-Asp-Phe-OH)",Kd,15N-labeled N(31-252),2600 µM
DSDNDLSLEDF,ΔG of binding to RNA-free N(13-391),RSV-N(13-391) [2],-6.9 kcal/mol
B1,Kd,[3],~7.6 µM
same,IC50,[4],15.3 µM
same,IC50,[5],230 µM
B2,Kd,[6],0.078 µM
B3,IC50,[4],1.51 µM
same,IC50,[5],31 µM
B4,Kd,[3],~0.34 µM
same,IC50,[4],0.61 µM and 0.74 µM
same,Kd,[7],74 µM
same,IC50,[5],13.6 µM
B5,IC50,[4],2.17 µM
same,IC50,[5],44 µM
B6,Kd,[6],0.76 µM
B7,IC50,[8],> 200 µM
B8,IC50,[8],69 µM
